This is an account of results in the RNAGym collection of RNA variant scans (doi:10.7554/elife.80360).

B1: Hairpin Ribozyme (parent)
chain: GUCCUCUUUCACGUGCGCGUGAAAGAGAGAAGUGAACCAGAGAAACACACGUUGUGGUAUAUUACCUGGUA

The data set covers variants of B1. The data set is described as follows: self-cleavage, relative activity (ratio to wild type); higher = more cleavage; co-transcriptional.
With C16G G54C, the self-cleavage was 0.393. Consider U33A A49C, for which the self-cleavage stood at 0.163. For the variant G21U U53G, the self-cleavage turned out to be 0.907. U14A A24C: the self-cleavage is 0.703. With U9C A23C the figure was 0.862. With C10U A26G, the self-cleavage is 0.722. For the variant C4G U55C, the self-cleavage was found to be 0.122. Consider A64G A71C, for which the self-cleavage was found to be 0.76. As for A39C G51C, the self-cleavage is 0.324. For A36G U63G, the self-cleavage was 0.3. Turning to A35C A47U, the self-cleavage was 0.179. With G27C U52A the figure was 0.167; with U7C G40U, 0.163; with U8G G15C, 0.639. On to C18A U63C, for which the self-cleavage is 0.0808. As to A41U C48G, the self-cleavage was determined as 0.241. Consider U5C A39U, for which the self-cleavage came to 0.228. Turning to G42C A47G, the self-cleavage is 0.116. As for C10U G19U, the figure is 0.672. As for C37U A49G, the figure is 0.508; as for U20A G40C, 0.0677; as for G25U G34U, 1.28. U2C C3A: the self-cleavage is 0.114. G21U C37U: the self-cleavage was determined as 0.373. For G69A A71C, the self-cleavage is 0.912.

As for A36U A43C, the self-cleavage was 0.0574. With G25C G68C the figure was 0.187; with G42C U55A, 0.169; with U62C A71C, 0.595.

On to G25C U63A, for which the self-cleavage was 0.0846. On to G13C G54A, for which the self-cleavage is 0.368. As for A41G G56U, the self-cleavage stood at 0.195.

Take A41U U52C: the self-cleavage turned out to be 1.11. As for C12A A61G, the figure is 0.174; as for A24C C66U, 0.395. Turning to G51C A61C, the self-cleavage turned out to be 0.0996. With A47U U55C, the self-cleavage is 0.203.

Take A26C A59G: the self-cleavage stood at 0.0796. Consider C12A G51A, for which the self-cleavage was determined as 0.898. For G1A G17U, the self-cleavage is 0.127. Take A39G A43U: the self-cleavage turned out to be 0.141. As for G54A G57U, the self-cleavage is 0.27. As for G1A G40C, the figure is 0.167; as for U7A C48A, 0.165. On to G27A G56C, for which the self-cleavage stood at 0.101.

Take U2G U62A: the self-cleavage came to 0.0977. Consider U14G A45U, for which the self-cleavage turned out to be 0.147. As to A26G A61G, the self-cleavage turned out to be 0.161.

Turning to G29U G68A, the self-cleavage came to 0.097. Regarding C6G U58G, the self-cleavage is 0.498. Consider U5C U7C, for which the self-cleavage was 0.303. A26U U53A: the self-cleavage is 0.474. For A11U G57C, the self-cleavage was determined as 0.182. As to C50U G56U, the self-cleavage was 0.121. In the case of G68U A71G, the self-cleavage stood at 0.253. As to A31U G68C, the self-cleavage worked out at 0.175. As for G27A C48G, the figure is 0.151.

Take U7A G17C: the self-cleavage is 0.791.

On to G42A G57A, for which the self-cleavage was found to be 0.14. For the variant A41C C66A, the self-cleavage turned out to be 0.214. As for A31U A39U, the figure is 0.12; as for U58C U60A, 0.845.

Consider U9A A61U, for which the self-cleavage stood at 0.185.

Take C6U G21U: the self-cleavage came out at 0.468. Regarding A11U G51U, the self-cleavage was 0.805.

Take A11U G51A: the self-cleavage is 0.799. With G15C A22C the figure was 0.846; with U5A G25A, 0.106; with G19A A44U, 0.269.

With A22G G25C, the self-cleavage is 0.547. For C18A A35U, the self-cleavage turned out to be 0.734.

Take C10A A47C: the self-cleavage came to 0.334. As for U5G C16A, the figure is 0.435; as for A22G G29C, 0.129; as for C12G A31U, 0.152.

As to G1A A30C, the self-cleavage was 0.291.

With A43G U63A, the self-cleavage was 0.134. With A26U G40U the figure was 0.131; with C18G G54C, 0.471. As to A23C A24C, the self-cleavage came to 0.718. Regarding G1U C46U, the self-cleavage turned out to be 0.0565. With G13U A35U the figure was 0.83; with A22U G68U, 0.188. Take U14G A44U: the self-cleavage came to 0.138. With U7A A39C the figure was 0.498.

As to C10U G40C, the self-cleavage was determined as 0.138. For the variant U55C A71U, the self-cleavage was found to be 0.16.

C4G C18G: the self-cleavage stood at 0.0835. As for G34A A44C, the figure is 0.223; as for A39U G69U, 0.151. On to G1A G51C, for which the self-cleavage stood at 0.0527. With A31U G34A, the self-cleavage came to 0.0803. On to C18G U70A, for which the self-cleavage stood at 0.885. Take C18G C46A: the self-cleavage turned out to be 0.0797. As to A39C G56U, the self-cleavage worked out at 0.134. Consider G13A U53A, for which the self-cleavage worked out at 0.856. As for G27A U62C, the figure is 0.13. Turning to A30G A59C, the self-cleavage came to 0.0815. As for U63C C65U, the self-cleavage was determined as 0.131. Regarding G25A C50A, the self-cleavage came out at 0.107.

Turning to U20A G57A, the self-cleavage was 0.204. For the variant G27C G54C, the self-cleavage was found to be 0.151. As to U2C U55A, the self-cleavage came to 0.0763. Turning to U2A U70A, the self-cleavage came out at 0.331. With G40A A71C the figure was 0.574; with A22G A45G, 0.115; with G42A U55C, 0.103. As for G51A A64U, the figure is 0.22; as for C37U C65A, 0.533. For A43G A49G, the self-cleavage was determined as 0.0811. As to C16U C66U, the self-cleavage came to 0.397.

For the variant G19C G29A, the self-cleavage was 0.112. For G25C A59G, the self-cleavage came out at 0.123. With A23U U55C, the self-cleavage turned out to be 0.358. As for A24C A28C, the figure is 0.349. On to G29U C66A, for which the self-cleavage amounted to 0.205. Take G25A C66A: the self-cleavage worked out at 0.15. As for G1A A31G, the figure is 0.136. With C10A A28U the figure was 0.483; with G1U G69U, 0.101; with C18U U70C, 0.984. As for G51A U67A, the self-cleavage was 0.291. Turning to U9G U62C, the self-cleavage worked out at 0.323.

Consider A47G U53G, for which the self-cleavage is 0.338. Turning to G27A A28C, the self-cleavage turned out to be 0.295. A11C G27C: the self-cleavage is 0.165. As to C37A A47G, the self-cleavage was 0.0917. Turning to A24U C50A, the self-cleavage worked out at 0.346. With G42U U53A the figure was 0.298; with A24U U55C, 0.11. A43G A59G: the self-cleavage was 0.094.

Consider U33C C46G, for which the self-cleavage worked out at 0.187. For G32A U63C, the self-cleavage worked out at 0.0959. With G1C U58A, the self-cleavage stood at 0.131. Turning to G56U C65U, the self-cleavage came to 0.276. Regarding C65U C66U, the self-cleavage is 0.185.

Regarding C12G G40U, the self-cleavage came to 0.113. C6U G51A: the self-cleavage turned out to be 0.816. With G29A G32U the figure was 0.0536; with U55C U58C, 0.475.

For C3U A44C, the self-cleavage came to 0.0442. For U8G A47U, the self-cleavage worked out at 0.168. With A49C U67C, the self-cleavage was found to be 0.0984.

Take A22U A59G: the self-cleavage turned out to be 0.117.

As to A24G U62G, the self-cleavage came to 0.0667.

As for G51U G56A, the self-cleavage amounted to 0.153. For the variant G25A C46A, the self-cleavage turned out to be 0.105. Turning to C10G A71G, the self-cleavage was found to be 0.705.

As to U2G G32A, the self-cleavage was 0.0684. A23C C46G: the self-cleavage was determined as 0.092. As to C37G A59U, the self-cleavage was determined as 0.0586. Turning to G29C A36C, the self-cleavage is 0.179.

Regarding A11G A24G, the self-cleavage amounted to 0.792.

As for G32A A45U, the self-cleavage was 0.143.

For the variant A31G U58G, the self-cleavage worked out at 0.404. With U9A U60C the figure was 0.993. With C50U U63A the figure was 0.172; with U20A A41G, 0.681. In the case of A44C U63A, the self-cleavage came out at 0.128.

For the variant A49U U70C, the self-cleavage is 0.124.

As for U5A C65G, the self-cleavage came out at 0.276. On to C38G C50A, for which the self-cleavage turned out to be 0.162. As for A41G U58C, the figure is 0.911; as for G25A A47G, 0.277; as for A23U G32A, 0.147. For C3A G25U, the self-cleavage was 0.406. As for C6A G68C, the self-cleavage came out at 0.13.
